Data reported in publication PMC11319201 (2024).

Columns and labels:
[1] = target: STAG2^R370Q–RAD21 complex (human | , UniProt Q8N3U4 1-1231; O60216 1-631, R370Q); assay: ITC
[2] = target: T1, STAG2–RAD21 complex (wild type) (human | , UniProt Q8N3U4 1-1231; O60216 1-631); assay: ITC
T1 chain 1: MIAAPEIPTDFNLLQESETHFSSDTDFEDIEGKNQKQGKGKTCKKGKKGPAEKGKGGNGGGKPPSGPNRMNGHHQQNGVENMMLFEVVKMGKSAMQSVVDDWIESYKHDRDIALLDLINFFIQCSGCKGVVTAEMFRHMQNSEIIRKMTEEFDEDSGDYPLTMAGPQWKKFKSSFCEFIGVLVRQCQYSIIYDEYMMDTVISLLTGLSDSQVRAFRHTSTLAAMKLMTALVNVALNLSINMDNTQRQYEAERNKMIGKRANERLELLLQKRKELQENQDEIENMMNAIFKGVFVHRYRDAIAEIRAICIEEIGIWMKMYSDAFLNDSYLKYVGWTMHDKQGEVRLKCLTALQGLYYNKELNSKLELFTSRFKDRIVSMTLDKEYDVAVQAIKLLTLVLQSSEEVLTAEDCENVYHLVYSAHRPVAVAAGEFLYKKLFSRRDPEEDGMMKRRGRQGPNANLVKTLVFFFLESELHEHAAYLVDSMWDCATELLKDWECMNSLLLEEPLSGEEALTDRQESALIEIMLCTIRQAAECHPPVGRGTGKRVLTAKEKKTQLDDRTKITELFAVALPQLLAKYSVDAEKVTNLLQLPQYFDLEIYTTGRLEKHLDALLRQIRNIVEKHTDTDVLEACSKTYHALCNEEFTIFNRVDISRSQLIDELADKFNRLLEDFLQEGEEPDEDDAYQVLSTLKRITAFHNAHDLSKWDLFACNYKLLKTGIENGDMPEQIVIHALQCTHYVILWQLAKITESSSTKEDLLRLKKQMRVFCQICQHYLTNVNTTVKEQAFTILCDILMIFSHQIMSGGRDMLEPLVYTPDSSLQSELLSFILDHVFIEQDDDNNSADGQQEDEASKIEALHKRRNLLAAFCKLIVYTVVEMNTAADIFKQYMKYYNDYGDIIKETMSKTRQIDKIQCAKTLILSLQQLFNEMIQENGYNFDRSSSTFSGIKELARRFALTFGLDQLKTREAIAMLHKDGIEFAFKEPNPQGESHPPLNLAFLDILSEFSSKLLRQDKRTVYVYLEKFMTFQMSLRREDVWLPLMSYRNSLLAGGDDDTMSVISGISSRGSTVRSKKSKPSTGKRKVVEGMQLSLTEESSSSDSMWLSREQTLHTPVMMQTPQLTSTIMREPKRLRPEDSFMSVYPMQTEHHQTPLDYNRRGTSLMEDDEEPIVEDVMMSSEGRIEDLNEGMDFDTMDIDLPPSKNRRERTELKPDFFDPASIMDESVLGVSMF
T1 chain 2: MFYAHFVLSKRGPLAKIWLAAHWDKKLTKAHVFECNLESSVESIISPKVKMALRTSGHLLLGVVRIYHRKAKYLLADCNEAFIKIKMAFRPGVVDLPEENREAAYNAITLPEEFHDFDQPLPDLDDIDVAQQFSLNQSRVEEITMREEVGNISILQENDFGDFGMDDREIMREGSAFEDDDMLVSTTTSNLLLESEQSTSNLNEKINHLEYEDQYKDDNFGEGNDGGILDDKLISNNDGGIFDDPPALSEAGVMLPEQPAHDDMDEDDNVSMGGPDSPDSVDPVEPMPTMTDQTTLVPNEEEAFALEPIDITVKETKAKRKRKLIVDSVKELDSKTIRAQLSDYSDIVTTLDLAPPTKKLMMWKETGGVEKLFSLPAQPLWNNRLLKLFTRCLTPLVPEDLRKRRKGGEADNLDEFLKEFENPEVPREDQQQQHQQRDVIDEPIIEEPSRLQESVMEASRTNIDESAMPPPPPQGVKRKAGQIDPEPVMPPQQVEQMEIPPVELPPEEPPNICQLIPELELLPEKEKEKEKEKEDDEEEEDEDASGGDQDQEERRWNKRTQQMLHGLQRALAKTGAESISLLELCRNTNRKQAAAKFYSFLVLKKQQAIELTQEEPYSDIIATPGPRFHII

Chain of STAG2^R370Q–RAD21 complex (Q8N3U4 whole entry R370Q, chain 1 of 2, one chain of several): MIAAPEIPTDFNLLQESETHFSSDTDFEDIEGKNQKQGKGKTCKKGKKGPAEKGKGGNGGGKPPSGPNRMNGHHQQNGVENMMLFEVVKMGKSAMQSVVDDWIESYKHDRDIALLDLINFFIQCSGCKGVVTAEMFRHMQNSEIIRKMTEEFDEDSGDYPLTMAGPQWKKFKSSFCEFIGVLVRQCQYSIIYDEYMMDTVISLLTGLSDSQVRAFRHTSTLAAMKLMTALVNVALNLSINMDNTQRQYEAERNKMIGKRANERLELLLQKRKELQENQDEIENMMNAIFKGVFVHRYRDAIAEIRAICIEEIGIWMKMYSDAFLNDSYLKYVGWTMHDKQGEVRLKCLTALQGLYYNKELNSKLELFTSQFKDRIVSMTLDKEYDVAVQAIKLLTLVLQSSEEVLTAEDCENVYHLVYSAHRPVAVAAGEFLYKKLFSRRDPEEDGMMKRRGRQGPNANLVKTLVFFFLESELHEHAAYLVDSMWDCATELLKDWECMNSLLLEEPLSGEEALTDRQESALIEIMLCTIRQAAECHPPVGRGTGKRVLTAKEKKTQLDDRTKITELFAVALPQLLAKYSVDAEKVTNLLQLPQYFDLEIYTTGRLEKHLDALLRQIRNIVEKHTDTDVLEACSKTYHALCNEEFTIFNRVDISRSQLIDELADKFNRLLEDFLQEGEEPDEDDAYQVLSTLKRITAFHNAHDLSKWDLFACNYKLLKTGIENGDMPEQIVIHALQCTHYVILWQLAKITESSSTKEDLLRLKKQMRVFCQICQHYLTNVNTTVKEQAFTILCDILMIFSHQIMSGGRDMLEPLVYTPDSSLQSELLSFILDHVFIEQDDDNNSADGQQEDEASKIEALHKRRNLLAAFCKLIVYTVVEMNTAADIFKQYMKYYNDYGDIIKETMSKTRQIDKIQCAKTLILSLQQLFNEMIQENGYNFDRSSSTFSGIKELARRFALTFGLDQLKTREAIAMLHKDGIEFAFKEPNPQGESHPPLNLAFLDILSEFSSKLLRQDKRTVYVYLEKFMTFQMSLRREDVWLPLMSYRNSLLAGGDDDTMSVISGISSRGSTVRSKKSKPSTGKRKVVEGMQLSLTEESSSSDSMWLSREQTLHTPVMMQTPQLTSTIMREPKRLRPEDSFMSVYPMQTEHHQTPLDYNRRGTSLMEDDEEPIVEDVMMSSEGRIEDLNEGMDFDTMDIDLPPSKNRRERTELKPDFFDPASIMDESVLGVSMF

Binder: DVSVYDFEEE [CTCF peptide]
- Kd [1]: 21.7 µM
- Kd [2]: 1920 nM
